Measurements published in patent publication US20240190978A1 (CSBIOASSET, published 2024).

Assays:
human CD40-Avi-tag = target: T1, human CD40-Avi-tag (human, UniProt P25942 21-193); assay: SPR (Biacore 8K, 25 °C), hCD40 immobilized, 1:1 binding model
T1 construct: Immobilized on NA-coated CM5 chips at about 200 RU; not shown: Avi-tag
Experimental: (§1) To evaluate binding of the bispecific binding proteins disclosed herein, surface plasmon resonance (SPR) studies were performed on a Biacore 8k instrument (GE Healthcare) at 25° C. The binding of the protein analytes was tested in buffer: 10 mM HEPES, 150 mM NaCl, 3 mM EDTA, 0.05% TWEEN20, pH7.4 on surfaces consisting of a low density (˜200RU) of human CD40-Avi-tag or human CD80-Avi-tag which had been immobilized on NA-coated CM5 chips using standard protocol. The protein analytes were injected in a titration series at a flowrate of 50 ul/min. The data were analyzed using the Biacore Insight Evaluation software. An 1:1 binding kinetic and affinity models are applied for experimental data analysis. The value for the equilibrium dissociation constant (KD) was calculated as the ratio of the rate constants Kd/Ka.

human CD80-Avi-tag = target: T2, human CD80-Avi-tag (human, UniProt P33681 35-242); assay: SPR (Biacore 8K, 25 °C), hCD80 immobilized, 1:1 binding model
T2 construct: also called immobilized human CD80; not shown: Avi-tag
T2 sequence (looked up): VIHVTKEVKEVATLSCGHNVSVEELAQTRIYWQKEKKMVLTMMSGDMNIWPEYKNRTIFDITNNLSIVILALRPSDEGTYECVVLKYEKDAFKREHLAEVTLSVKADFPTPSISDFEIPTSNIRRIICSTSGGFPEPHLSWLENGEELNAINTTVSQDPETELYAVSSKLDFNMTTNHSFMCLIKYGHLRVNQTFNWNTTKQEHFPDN
Experimental: as §1

T1 sequence (P25942 21-193 limits assumed): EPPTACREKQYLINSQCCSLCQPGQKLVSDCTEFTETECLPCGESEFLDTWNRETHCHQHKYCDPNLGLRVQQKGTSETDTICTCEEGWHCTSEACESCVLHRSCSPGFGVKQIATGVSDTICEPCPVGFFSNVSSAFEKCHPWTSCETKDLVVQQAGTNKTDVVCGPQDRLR

Kd (human CD40-Avi-tag): 0.325 nM | koff (human CD40-Avi-tag): 9.84e-05 s⁻¹ | kon (human CD40-Avi-tag): 303000 M⁻¹ s⁻¹ | Kd (human CD80-Avi-tag): 154 nM | koff (human CD80-Avi-tag): 0.12 s⁻¹ | kon (human CD80-Avi-tag): 780000 M⁻¹ s⁻¹
B1: α-CD40/CTLA-4 bispecific protein (SEQ ID NO: 2 with SEQ ID NO: 11) (bispecific antibody, human IgG4 S228P, kappa)
heavy: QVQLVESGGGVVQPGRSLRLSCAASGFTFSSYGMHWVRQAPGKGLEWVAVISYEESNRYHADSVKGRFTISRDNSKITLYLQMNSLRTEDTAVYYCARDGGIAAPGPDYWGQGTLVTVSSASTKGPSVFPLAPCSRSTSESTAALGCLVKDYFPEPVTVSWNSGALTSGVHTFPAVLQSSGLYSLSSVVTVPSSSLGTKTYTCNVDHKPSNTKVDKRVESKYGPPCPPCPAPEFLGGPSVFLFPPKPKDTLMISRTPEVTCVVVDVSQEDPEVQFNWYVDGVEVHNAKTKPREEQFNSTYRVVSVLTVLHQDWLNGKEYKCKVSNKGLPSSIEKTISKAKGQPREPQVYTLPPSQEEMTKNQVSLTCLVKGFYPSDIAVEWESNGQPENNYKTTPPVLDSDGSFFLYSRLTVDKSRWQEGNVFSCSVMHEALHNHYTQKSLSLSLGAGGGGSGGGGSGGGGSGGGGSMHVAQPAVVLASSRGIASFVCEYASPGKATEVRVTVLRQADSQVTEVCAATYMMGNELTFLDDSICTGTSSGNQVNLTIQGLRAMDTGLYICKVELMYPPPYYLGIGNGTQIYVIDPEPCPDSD
light: DIVMTQSPLSLTVTPGEPASISCRSSQSLLYSNGYNYLDWYLQKPGQSPQVLISLGSNRASGVPDRFSGSGSGTDFTLKISRVEAEDVGVYYCMQARQTPFTFGPGTKVDIRRTVAAPSVFIFPPSDEQLKSGTASVVCLLNNFYPREAKVQWKVDNALQSGNSQESVTEQDSKDSTYSLSSTLTLSKADYEKHKVYACEVTHQGLSSPVTKSFNRGEC
notes: also called Duotein-B; exemplary α-CD40/CTLA-4 bispecific protein
